In publication PMC10308189 (Bio-protocol, 2023):

Target: the molecule itself
Test: SEC

B1: human amphiphysin 1 N-BAR domain (1-247) (domain or fragment, UniProt P49418 1-247, looked up)
chain: MADIKTGIFAKNVQKRLNRAQEKVLQKLGKADETKDEQFEEYVQNFKRQEAEGTRLQRELRGYLAAIKGMQEASMKLTESLHEVYEPDWYGREDVKMVGEKCDVLWEDFHQKLVDGSLLTLDTYLGQFPDIKNRIAKRSRKLVDYDSARHHLEALQSSKRKDESRISKAEEEFQKAQKVFEEFNVDLQEELPSLWSRRVGFYVNTFKNVSSLEAKFHKEIAVLCHKLYEVMTKLGDQHADKAFTIQG
stoichiometry N: 2
